Reference: patent publication US20040259075A1 (US Dept. of Health and Human Services, published 2004)

How the values were obtained:
[1] = target: gp120 JRFL (HIV-1 JRFL, UniProt P20871 32-503); assay: ELISA, antigen coated (FIG. 1)
[2] = target: T1, gp120JRFL+sCD4 complex (HIV-1 JRFL); assay: ELISA, antigen coated (FIG. 1)
T1 construct: domain: gp120;domain: two-domain soluble CD4 (D1D2)

[3] = target: T2, gp120 89.6 (HIV-1 89.6, UniProt Q73372 32-508); assay: ELISA, antigen coated, Langmuir isotherm fit (FIG. 2)
T2 construct: domain: gp120

[4] = target: T3, sCD4-gp120 89.6 complex (HIV-1 89.6, UniProt Q73372 32-508; P01730 26-208); assay: as above
T3 construct: domain: gp120;domain: two-domain soluble CD4 (D1D2)

[5] = target: T2, gp120 89.6; assay: ELISA, antigen coated, Langmuir isotherm fit (FIG. 2 legend)
[6] = target: T4, gp120-CD4-CCR5 complex (JRFL gp120) used for the X5 selection (HIV-1 JRFL); assay: binding to the complex used for selection; method not stated
[7] = target: T5, protein G cross-linked to Sepharose beads; assay: binding to protein G cross-linked to Sepharose beads; method not stated
T5 construct: also called protein G beads; Protein G-Sepharose beads

[8] = target: T5, protein G cross-linked to Sepharose …; assay: effective affinity of phage for protein G beads; method not stated
[9] = target: T4, gp120-CD4-CCR5 complex (JRFL gp120) …; assay: effective affinity of phage for the bead-bound complex; method not stated
[10] = target: T5, protein G cross-linked to Sepharose …; assay: effective affinity of phage for beads; reference is the gp120-CD4-CCR5 complex

B1: X5 Fab (Fab)
heavy: EVQLLEQSGAEVKKPGSSVQVSCKASGGTFSMYGFNWVRQAPGHGLEWMGGIIPIFGTSNYAQKFRGRVTFTADQATSTAYMELTNLRSDDTAVYYCARDFGPDWEDGDSYDGSGRGFFDFWGQGTLVTVSSASTKGPSVFPLAPSSKSTSGGTAALGCLVKDYFPEPVTVSWNSGALTSGVHTFPAVLQSSGLYSLSSVVTVPSSSLGTQTYICNVNHKPSNTKVDKKVEPKSCDKTS
light: AELVLTQSPGTLSLSAGERATLSCRASQSVSSGSLAWYQQKPGQAPRLLIYGASTRATGIPDRFSGSGSGTDFTLTIGRLEPEDLAVYYCQQYGTSPYTFGQGTKLEIKRTVAAPSVFIFPPSDEQLKSGTASVVCLLNNFYPREAKVQWKVDNALQSGNSQESVTEHDSRDSTYSLGSTLTLSKADYEKHKVYACEVTHQGLSSPVTKSFNRGEC
notes: also called Fab X5; antibody Fab fragment X5
Kd [1]: 10 nM | Kd [2]: 2 nM | Kd [3]: 9.4 nM | Kd [4]: 1 nM | Kd [5]: 9.3 nM | Kd [6]: 1 nM | Kd [7]: 15 nM

B2: Phage-displayed X5 (Fab)
heavy: B1 heavy
light: B1 light
notes: also called phage X5; not shown: phage gene III fragment of the phagemid
Kd [8]: 1.4 nM | Kd [9]: 0.09 nM | fold lower effective affinity than for the gp120-CD4-CCR5 complex [10]: 15 fold
